Ends that are not written are not given here.
Target: T1, bovine serum albumin (bovine, UniProt P02769 25-607)
T1 construct: Negative control surface; also called BSA
Test: BioFlux microfluidic adhesion, RhB-labeled “VBP+CBP”-decorated liposomes flowed at 25 dyn/cm^2 over albumin-coated channels, fluorescence microscopy
Protocol: The “VBP+CBP”-decorated nanoparticles and control (undecorated) nano-particles were evaluated for their specific adhesion capabilities utilizing a BioFlux 200 microfluidic system (Fluxion Biosciences) and observed under inverted fluorescence microscope imaging. This system allows simulation of a physiologically relevant vascular flow environment. Here, the microfluidic channels were incubated with either 0.3 wt % bovine serum albumin (BSA) in water or 40 μg/mL equine type 1 fibrillar collagen and 10 μg/mL vWF in 20 μM acetic acid for 1.5 h. Unbound albumin and collagen were removed with a saline rinse. […] Fluorescence microscopy imaging of particle Rhodamine B label was used to quantify the extent of particle adhesion to the coated surfaces. Thrombin release kinetics was measured by sealing the column-separated t-TLNPs in a MWCO 100 K dialysis bag, placing the bag in a TBS reservoir, and removing aliquots from the reservoir at predefined time points over the course of 6 h (fresh TBS was added back to the reservoir appropriately after each aliquot removal). […] Thrombin concentrations from the collected aliquots were evaluated using a human thrombin ELISA and plotted over time to determine the release profile. […]

T1 sequence (P02769 25-607 limits assumed): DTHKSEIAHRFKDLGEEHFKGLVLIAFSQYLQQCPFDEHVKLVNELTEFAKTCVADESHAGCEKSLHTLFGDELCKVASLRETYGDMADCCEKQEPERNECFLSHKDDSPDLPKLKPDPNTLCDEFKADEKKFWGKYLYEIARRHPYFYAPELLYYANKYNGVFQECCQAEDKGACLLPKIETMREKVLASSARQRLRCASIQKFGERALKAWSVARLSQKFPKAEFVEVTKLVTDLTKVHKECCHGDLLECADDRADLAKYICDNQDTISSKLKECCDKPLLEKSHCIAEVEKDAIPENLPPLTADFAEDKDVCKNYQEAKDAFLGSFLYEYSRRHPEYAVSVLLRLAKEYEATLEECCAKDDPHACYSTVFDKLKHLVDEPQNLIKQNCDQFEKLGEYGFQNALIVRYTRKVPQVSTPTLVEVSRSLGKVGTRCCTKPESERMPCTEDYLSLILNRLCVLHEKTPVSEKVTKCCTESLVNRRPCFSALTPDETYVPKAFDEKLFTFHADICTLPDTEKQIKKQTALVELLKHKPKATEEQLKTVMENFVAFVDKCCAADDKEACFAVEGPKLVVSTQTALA

B1: vWF-binding peptide (VBP), cysteinylated, CTRYLRIHPQSWVHQI, conjugated to DSPE-PEG2K and displayed on liposomal nanoparticles (peptide)
peptide: C(DSPE‑PEG2000‑maleimide)TRYLRIHPQSWVHQI
notes: In every adhesion assay the peptide stood on the surface of liposomes (1.25 mol % DSPE-PEG2K-VBP) together with CBP (1.25 mol %); also called DSPE-PEG2K-VBP
Question: Does B1 bind?
Answer: no binding
